Paper PMC11322411

Biological target: GRK2-phosphorylated FLAG-tagged SMOOTHENED (near-full-length mouse SMO, residues 64-674) (mouse) (UniProt P56726)
Experiment: pull-down; purified FLAG-SMO forms (18.2 uM) mixed with PKA-C (10 uM), captured on anti-FLAG M1 sepharose beads, 4°C 2 h; 20 mM HEPES pH 7.5, 150 mM NaCl, 3 mM CaCl2, 10 mM MgCl2, 1 mM ATP, 0.025% GDN, 1 uM SAG21k; eluted with FLAG peptide and EDTA; stain-free SDS-PAGE, densitometry

Sequence of UniProt P56726 (P56726 64-674): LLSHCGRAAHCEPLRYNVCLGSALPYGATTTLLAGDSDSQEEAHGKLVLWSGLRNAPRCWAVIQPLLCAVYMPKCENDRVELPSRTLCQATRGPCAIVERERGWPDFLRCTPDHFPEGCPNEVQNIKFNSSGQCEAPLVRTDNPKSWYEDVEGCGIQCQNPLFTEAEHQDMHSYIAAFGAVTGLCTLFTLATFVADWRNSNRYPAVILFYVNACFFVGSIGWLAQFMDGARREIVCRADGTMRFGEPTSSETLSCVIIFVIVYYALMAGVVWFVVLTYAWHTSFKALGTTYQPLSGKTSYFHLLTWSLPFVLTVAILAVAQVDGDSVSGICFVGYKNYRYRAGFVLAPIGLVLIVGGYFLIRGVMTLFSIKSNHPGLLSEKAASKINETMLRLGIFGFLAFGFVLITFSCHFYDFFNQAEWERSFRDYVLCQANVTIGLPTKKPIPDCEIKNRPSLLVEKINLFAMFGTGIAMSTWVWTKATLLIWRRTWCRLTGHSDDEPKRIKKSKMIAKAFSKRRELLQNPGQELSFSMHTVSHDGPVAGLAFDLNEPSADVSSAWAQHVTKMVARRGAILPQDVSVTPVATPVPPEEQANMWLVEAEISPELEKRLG

PKA-C in the FLAG elution as percent of SMO: 25%
Substance: protein kinase A catalytic subunit (PKA-C), mouse (from UniProt P05132 1-351) (enzyme)
